How the values were obtained:
[1] = molecular target: MacQ heterodimer consisting of an α-chain and a β-chain (wild-type, cleaved form) (Acidovorax sp. strain MR-S7); experiment: SEC; analytical gel filtration, Superose 6 10/300 GL, 50 mM sodium phosphate pH 8.0, 200 mM NaCl, 0.4 mL/min
[2] = molecular target: MacQ heterodimer consisting of an α-chain and a β-chain (wild-type, cleaved form) (Acidovorax sp. strain MR-S7); experiment: crystal structure; wild-type MacQ, ligand-free and with the reaction products C10 and PAA; crystals at 20 °C from 100 mM Tris-HCl pH 7.5–8.5, 0.1–0.2 M calcium acetate, 14–18% PEG 3350

stoichiometry N [1]: 2 | stoichiometry N [2]: 2
Substance: MacQ heterodimer consisting of an α-chain and a β-chain (wild-type, cleaved form) (complex)
